Laboratory results from US5990078A, “Means of increasing estrogen receptor levels in neural tissue” (The Trustees of Columbia University in the City of New York, priority 1996, dated 1999).

system: estrogen receptor; assay: Tyrosine phosphorylation of the estrogen receptor, cortical explants; type: cell-based
Description: Estrogen and the neurotrophins have important roles in the developing and adult central nervous system (CNS). […] The hypothesis that estrogen/neurotrophin receptor co-expression leads to reciprocal regulation at the level of signal transduction, through cross-coupling of converging estrogen and neurotrophin signaling pathways whose end-points in the nucleus may be the very same genes was tested. Postnatal day 2 cerebral cortex was maintained as organotypic explants in roller tube culture for 7 days.

Tyrosine phosphorylation of the estrogen receptor | Molecule
not | NT-3: neurotrophin-3
induced tyrosine phosphorylation | BDNF: brain-derived neurotrophic factor, a neurotrophin (protein, UniProt P23560 19-247, looked up) Neurotrophic factor BDNF …: APMKEANIRGQGGLAYPGVRTHGTLESVNGPKAGSRGLTSLADTFEHVIEELLDEDQKVRPNEENNKDADLYTSRVMLSSQVPLEPPLLFLLEEYKNYLDAANMSMRVRRHSDPARRGELSVCDSISEWVTAADKKTAVDMSGGTVTVLEKVPVSKGQLKQYFYETKCNPMGYTKEGCRGIDKRHWNSQCRTTQSYVRALTMDSKKRIGWRFIRIDTSCVCTLTIKRGR
induced tyrosine phosphorylation | NT-4/5: neurotrophin-4/5 (protein, UniProt P34130 81-210, looked up) Neurotrophin-4: GVSETAPASRRGELAVCDAVSGWVTDRRTAVDLRGREVEVLGEVPAAGGSPLRQYFFETRCKADNAEEGGPGAGGGGCRGVDRRHWVSECKAKQSYVRALTADAQGRVGWRWIRIDTACVCTLLSRTGRA
